Each block holds one binder with its values, some of them ahead of it.
What was measured:
[1] = target: T1, dog MET on dMET-NIH3T3 cells (dog (Canis lupus, printed 'Cans lupus'), UniProt Q75ZY9 25-1382); test: flow cytometry on dMET-NIH3T3 cells
T1 construct: also called dMET-NIH13T3 [sic]

[2] = target: human MET on hMET-NIH3T3 cells (human, UniProt P08581 25-1390); test: flow cytometry on hMET-NIH3T3 cells
[3] = target: T2, monkey MET on fasMET-NIH3T3 cells (monkey (Macaca fascicularis)); test: flow cytometry on fasMET-NIH3T3 cells
T2 sequence (chain, as listed by the source limits assumed): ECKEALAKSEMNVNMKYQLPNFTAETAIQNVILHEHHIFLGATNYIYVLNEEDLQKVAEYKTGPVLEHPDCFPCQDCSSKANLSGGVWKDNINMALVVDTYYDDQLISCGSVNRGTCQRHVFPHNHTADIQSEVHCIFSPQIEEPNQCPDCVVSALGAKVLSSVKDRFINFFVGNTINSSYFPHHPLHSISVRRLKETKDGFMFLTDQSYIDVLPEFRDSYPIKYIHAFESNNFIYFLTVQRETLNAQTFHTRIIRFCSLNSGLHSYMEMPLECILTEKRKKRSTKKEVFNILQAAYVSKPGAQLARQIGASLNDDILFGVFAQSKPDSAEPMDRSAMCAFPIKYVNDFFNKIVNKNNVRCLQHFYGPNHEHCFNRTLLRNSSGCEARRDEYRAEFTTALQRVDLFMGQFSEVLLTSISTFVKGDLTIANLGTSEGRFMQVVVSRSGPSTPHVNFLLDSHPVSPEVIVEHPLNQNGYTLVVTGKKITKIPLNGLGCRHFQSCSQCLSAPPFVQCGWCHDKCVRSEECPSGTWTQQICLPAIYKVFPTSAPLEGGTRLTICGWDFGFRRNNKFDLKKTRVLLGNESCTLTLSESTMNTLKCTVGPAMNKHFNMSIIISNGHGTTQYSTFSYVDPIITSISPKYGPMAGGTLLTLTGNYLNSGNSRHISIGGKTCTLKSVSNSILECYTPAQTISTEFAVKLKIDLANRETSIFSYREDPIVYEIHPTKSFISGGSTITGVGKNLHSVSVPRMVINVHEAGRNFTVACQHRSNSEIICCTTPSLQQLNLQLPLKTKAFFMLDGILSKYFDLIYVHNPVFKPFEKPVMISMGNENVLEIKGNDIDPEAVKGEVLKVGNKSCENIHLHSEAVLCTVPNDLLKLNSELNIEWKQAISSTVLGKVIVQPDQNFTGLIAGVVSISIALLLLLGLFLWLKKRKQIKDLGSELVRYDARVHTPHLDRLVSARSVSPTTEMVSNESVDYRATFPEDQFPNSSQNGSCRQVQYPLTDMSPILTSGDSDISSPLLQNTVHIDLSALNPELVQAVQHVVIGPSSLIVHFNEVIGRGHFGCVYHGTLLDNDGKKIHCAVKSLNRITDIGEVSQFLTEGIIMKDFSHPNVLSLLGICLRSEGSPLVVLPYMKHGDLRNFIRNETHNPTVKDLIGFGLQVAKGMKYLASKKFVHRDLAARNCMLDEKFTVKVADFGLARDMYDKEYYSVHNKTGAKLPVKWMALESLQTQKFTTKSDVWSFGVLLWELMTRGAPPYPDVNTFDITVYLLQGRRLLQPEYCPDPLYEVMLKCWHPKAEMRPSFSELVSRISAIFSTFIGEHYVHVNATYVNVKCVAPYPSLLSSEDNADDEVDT

[4] = target: T3, His-tagged human MET protein (human, UniProt P08581 25-932); test: SPR (Biacore 8K), antibody on Protein A chip
T3 construct: Bought protein; also called hMET-His; not shown: His tag
T3 sequence (P08581 25-932 limits assumed): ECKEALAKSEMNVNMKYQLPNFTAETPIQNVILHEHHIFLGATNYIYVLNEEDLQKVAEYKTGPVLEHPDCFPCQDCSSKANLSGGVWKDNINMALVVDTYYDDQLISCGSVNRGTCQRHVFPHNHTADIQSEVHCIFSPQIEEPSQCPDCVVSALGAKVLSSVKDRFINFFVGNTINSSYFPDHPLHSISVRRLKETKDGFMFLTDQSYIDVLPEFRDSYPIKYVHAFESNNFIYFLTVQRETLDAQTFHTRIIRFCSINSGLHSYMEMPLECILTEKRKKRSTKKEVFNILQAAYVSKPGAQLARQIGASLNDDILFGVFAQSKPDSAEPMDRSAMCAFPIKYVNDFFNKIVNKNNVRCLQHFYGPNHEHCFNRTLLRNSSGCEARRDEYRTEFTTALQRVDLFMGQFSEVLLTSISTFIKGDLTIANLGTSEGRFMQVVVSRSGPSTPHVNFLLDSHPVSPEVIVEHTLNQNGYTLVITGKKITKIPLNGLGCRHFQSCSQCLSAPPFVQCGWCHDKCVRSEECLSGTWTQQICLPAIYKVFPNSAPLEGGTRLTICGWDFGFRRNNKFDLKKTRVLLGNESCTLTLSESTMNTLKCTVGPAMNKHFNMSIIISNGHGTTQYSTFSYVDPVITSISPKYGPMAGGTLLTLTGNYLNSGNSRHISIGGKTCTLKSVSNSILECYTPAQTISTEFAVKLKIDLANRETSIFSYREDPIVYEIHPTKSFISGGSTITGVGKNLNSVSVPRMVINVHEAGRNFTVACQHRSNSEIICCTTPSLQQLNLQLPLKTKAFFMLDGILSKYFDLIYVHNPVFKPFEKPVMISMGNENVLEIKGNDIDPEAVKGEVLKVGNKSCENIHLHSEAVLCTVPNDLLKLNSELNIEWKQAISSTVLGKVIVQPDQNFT

[5] = target: T4, His-tagged dog MET (dog, UniProt Q75ZY9 25-933, limits assumed); test: SPR (Biacore 8K), antibody on Protein A chip
T4 construct: Bought protein; also called dMET-His; not shown: His tag

[6] = target: T1, dog MET on dMET-NIH3T3 cells; test: flow cytometry on dMET-NIH3T3 cells (1.44% positive cells)
[7] = target: T4, His-tagged dog MET; test: SPR (Biacore 8K), antibody on Protein A chip; legend: - means no binding
[8] = target: T5, His-tagged human EGFR protein (human, UniProt P00533 25-645); test: SPR (Biacore 8K), Protein A chip
T5 construct: Bought protein; also called hEGFR-His; not shown: His tag

[9] = target: T6, His-tagged monkey EGFR protein (monkey (crab-eating macaque; Macaca …, UniProt A0A2K5WK39 25-645); test: SPR (Biacore 8K), Protein A chip
T6 construct: also called fasEGFR-His; not shown: His tag

[10] = target: T3, His-tagged human MET protein; test: SPR (Biacore 8K), Protein A chip
[11] = target: T4, His-tagged dog MET; test: SPR (Biacore 8K), antibody on Protein A chip; remark: listed apart in the source
[12] = target: T1, dog MET on dMET-NIH3T3 cells; test: flow cytometry on dMET-NIH3T3 cells (5.33% positive cells)
[13] = target: T7, human MET on SNU-5 cells (human, UniProt P08581 25-1390); test: flow cytometry on SNU-5 cells
T7 construct: whole, on cells; Endogenous MET of SNU-5 cells
T7 sequence (P08581 25-1390): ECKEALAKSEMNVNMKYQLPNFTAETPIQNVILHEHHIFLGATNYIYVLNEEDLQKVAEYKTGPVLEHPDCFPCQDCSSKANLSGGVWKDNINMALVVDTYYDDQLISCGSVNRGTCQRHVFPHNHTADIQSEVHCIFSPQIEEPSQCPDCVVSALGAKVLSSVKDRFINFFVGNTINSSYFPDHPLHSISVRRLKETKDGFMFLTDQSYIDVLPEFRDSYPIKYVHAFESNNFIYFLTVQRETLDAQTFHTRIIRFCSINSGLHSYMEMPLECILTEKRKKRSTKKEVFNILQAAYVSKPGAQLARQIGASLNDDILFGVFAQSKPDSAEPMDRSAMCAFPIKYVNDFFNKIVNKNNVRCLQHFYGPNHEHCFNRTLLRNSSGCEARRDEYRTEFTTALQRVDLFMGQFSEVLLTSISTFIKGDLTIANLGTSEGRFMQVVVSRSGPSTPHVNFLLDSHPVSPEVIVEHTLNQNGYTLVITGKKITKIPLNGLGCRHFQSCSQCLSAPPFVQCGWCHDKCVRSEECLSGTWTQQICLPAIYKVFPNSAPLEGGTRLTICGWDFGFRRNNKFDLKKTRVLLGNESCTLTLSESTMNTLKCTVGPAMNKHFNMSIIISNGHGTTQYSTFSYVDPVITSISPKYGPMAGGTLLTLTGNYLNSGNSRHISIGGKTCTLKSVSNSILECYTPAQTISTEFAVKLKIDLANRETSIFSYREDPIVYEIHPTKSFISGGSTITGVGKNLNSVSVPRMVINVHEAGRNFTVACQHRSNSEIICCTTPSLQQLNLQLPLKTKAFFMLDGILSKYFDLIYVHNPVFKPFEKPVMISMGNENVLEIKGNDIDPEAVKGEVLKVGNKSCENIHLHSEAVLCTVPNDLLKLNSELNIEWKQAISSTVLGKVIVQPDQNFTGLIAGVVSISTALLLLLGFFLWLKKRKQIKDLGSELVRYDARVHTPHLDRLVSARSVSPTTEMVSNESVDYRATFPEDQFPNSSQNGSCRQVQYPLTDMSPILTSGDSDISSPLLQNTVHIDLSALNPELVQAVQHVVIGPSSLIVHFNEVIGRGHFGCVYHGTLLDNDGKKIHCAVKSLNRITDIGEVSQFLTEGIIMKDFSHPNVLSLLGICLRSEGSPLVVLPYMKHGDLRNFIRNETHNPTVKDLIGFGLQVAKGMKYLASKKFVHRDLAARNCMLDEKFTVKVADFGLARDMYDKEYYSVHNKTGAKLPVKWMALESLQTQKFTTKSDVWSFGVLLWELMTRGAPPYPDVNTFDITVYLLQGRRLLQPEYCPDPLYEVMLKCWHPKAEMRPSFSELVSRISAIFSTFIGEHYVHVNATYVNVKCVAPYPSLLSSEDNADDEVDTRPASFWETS

[14] = target: T2, monkey MET on fasMET-NIH3T3 cells; test: flow cytometry on fasMET-NIH3T3 cells (0.18% positive cells)

Chain of human MET on hMET-NIH3T3 cells (P08581 25-1390 limits assumed): as the sequence (P08581 25-1390) above

B2: M-8H10 (antibody, V domains shown)
VH: QVQLQQWGAGLLKPSETLSLTCAVYGGSFSGYYWTWIRQPPGKGLEWIGESNHGGSTNFNPSLKSRVTISVDTSKNHFSLKLSPVTAADTAVYYCTRGGTIFGLKDAFDIWGQGTMVTVSS
VL: not shown
Percentage of Positive Cells [2]: 99.8%
Percentage of Positive Cells [3]: 67.8%
Kd [4]: 19.9 nM
koff [4]: 0.00138 s⁻¹
kon [4]: 69700 M⁻¹ s⁻¹
binding result [6]: no binding
binding result [7]: no binding

B4: Telisotuzumab analog (antibody, human IgG1, kappa, V domains shown)
VH: QVQLVQSGAEVKKPGASVKVSCKASGYIFTAYTMHWVRQAPGQGLEWMGWIKPNNGLANYAQKFQGRVTMTRDTSISTAYMELSRLRSDDTAVYYCARSEITTEFDYWGQGTLVTVSS
VL: DIVMTQSPDSLAVSLGERATINCKSSESVDSYANSFLHWYQQKPGQPPKLLIYRASTRESGVPDRFSGSGSGTDFTLTISSLQAEDVAVYYCQQSKEDPLTFGGGTKVEIKR
notes: Humanized IgG1 against MET
binding result [8]: no binding (tested: antigen up to 400 nM)
binding result [9]: no binding (tested: antigen up to 400 nM)
Kd [10]: 0.972 nM
koff [10]: 0.0001 s⁻¹
kon [10]: 103000 M⁻¹ s⁻¹
binding result [11]: no binding

B5: M-6D12 (antibody, V domains shown)
VH: QVQLQQSGPGLVKPSGTLSLTCAVSGGSISKSNWWTWVRQPPGKGLEWIGEIHHSGSTNYNPSLKSRVTISVEKTKNQFSLKLSSVTAADTAVYYCARGGGYGYDFDYWGQGTLVTVSS
VL: not shown
Percentage of Positive Cells [2]: 99.8%
Percentage of Positive Cells [3]: 71.4%
Kd [4]: 60.6 nM
koff [4]: 0.00237 s⁻¹
kon [4]: 39100 M⁻¹ s⁻¹
binding result [12]: no binding
binding result [7]: no binding

B6: M-2F12 (antibody, V domains shown)
VH: QVQLVQSGGGVVQPGRSLRLSCAASGFTFNNYGMDWVRQAPGKGLEWVAVIWNDGSKKYYGDFVKGRFTISRDNSKNTLYLEMNSLRAEDTAVYYCARDLEGGQLADAFDVWGQGTMVTVSS
VL: not shown
Percentage of Positive Cells [13]: 95.6%
binding result [14]: no binding

Now from value to binder:

Percentage of Positive Cells [1]: 73.2%
Percentage of Positive Cells [2]: 99.2%
Percentage of Positive Cells [3]: 49.2%
Kd [4]: 10.1 nM
koff [4]: 0.000634 s⁻¹
kon [4]: 62500 M⁻¹ s⁻¹
Kd [5]: 253 nM
koff [5]: 0.0175 s⁻¹
kon [5]: 69000 M⁻¹ s⁻¹
B1: M-6E6 (antibody, V domains shown)
VH: QVQLEQSGPTLVKPTQTLTLTCTFSGFSLSSTGVAMGWIRQPPGKALEWLALIYWDDDKHYSPSLESRLTITKDTFKNQVVLSMTNMDPLDTATYYCTHRRYTGYEDYWGQGILVTVSS
VL: not shown

Percentage of Positive Cells [1]: 78.8%
Percentage of Positive Cells [2]: 99.6%
Percentage of Positive Cells [3]: 62.2%
Kd [4]: 13.1 nM
koff [4]: 0.000683 s⁻¹
kon [4]: 52200 M⁻¹ s⁻¹
Kd [5]: 50 nM
koff [5]: 0.00384 s⁻¹
kon [5]: 76900 M⁻¹ s⁻¹
B3: M-8E2 (antibody, V domains shown)
VH: QVQLVQSGPALVKPTQTLTLTCTFSGFSLYTSGVAVAWIRQPPGKALEWLALIYWDDDKWYTPSLKTRLSITKDTSKNQVVLTMTNMDPVDTATYYCAHRGSFNWNYGYFDYWGQGTLVTVSS
VL: not shown

Percentage of Positive Cells [1]: 74.7%
Percentage of Positive Cells [2]: 99.6%
Percentage of Positive Cells [3]: 63.4%
Kd [4]: 11.6 nM
koff [4]: 0.000684 s⁻¹
kon [4]: 59100 M⁻¹ s⁻¹
Kd [5]: 62.3 nM
koff [5]: 0.00343 s⁻¹
kon [5]: 55000 M⁻¹ s⁻¹
B7: M-7D3 (antibody, V domains shown)
VH: QVQLVQSGLTLVKPTQTLTLTCTFSGFSLSTTGVSVGWIRQPPGKALEWLALIYWDDDKHYSPSLKSRLTITKDTSKNQVVLTMTNMDPVDTATYYCAPGGYSSGWPGFYDLWGRGTLVTVSS
VL: not shown
